Laboratory results taken from US20090252754A1, “Vaccines containing the hiv tat protein as an adjuvant for the enhancement of cytotoxic t-cell responses” (priority 2003, published 2009).
Where a chain is given by its changes, count along the chain named. Like-named read-outs stand apart in the source and are kept apart here.

Experiments:
LMP2 = LMP2 expression in splenocytes of mice treated i.m. with Tat (Western blot); type: in vivo; settings: Balb/c mice, 1 μg i.m., 3 consecutive treatments
Description: Equal amounts of proteins were loaded on a 12% SDS-PAGE gel and electroblotted onto Protran nitrocellulose membranes (Schleicher & Schuell, Keene, Hampshire, USA). The blots were probed with antibodies specific for α2, LMP2, LMP7, MECL1, and PA28α subunits (Affinity, Exeter, UK) and developed by enhanced chemiluminescence (ECL, Amersham Pharmacia Biotech, Uppsala, SW).
Animal use was according to national and institutional guidelines. Seven-to-eight week old female Balb/c mice (Nossan, Milan, Italy) were injected with native monomeric biologically active Tat protein (1 μg) resuspended in degassed sterile PBS. Control mice were injected with oxidised Tat (1 μg) or with PBS alone. Samples (100 μl) were given by intramuscular (i.m.) injections in the quadriceps muscles of the posterior legs. Each experimental group consisted of three mice, and the experiment was repeated twice. Mice were boosted at days 11 and 20 after the first injection. Seven days after the last injection, animals were anaesthetised intraperitoneally (i.p.) with 100 μl of isotonic solution containing 1 mg of Inoketan (Virbac, Milan, Italy), and 200 μg Rompun (Bayer, Milan, Italy) and sacrificed to collect spleens. Mononuclear cells from individual spleens were purified using cells strainers, resuspended in PBS containing 20 mM EDTA, and treated with a red blood cells lysis buffer for 4 minutes at room temperature. […]

HIV-1 LTR = settings: in contrast to wild-type Tat, cited from earlier work
[1] = test system: proteasome subunits (α2, LMP2, LMP7, MECL1) in Jurkat cells; test: Western blot of proteasome subunits in Jurkat cells expressing or treated with Tat, Tat mutants or Tat peptides; type: cell-based, human; settings: Jurkat cells expressing mutant
Experimental: Jurkat T cells expressing Tat or mutated Tat (referred to as Tat22, wherein a Cys at position 22 is mutated) have previously been described (1). Cells were cultured in a medium supplemented with 800 μg/ml neomycin (Sigma, St. Louise, […].).
Cells were lysed with glass beads as previously described (4). Supernatants were ultracentrifuged for 1 h at 100,000 g and loaded into an affinity column containing a matrix derivatised with the MCP21 mAb specific for the α2 subunit of the proteasome (Affinity, Exeter, UK). Proteasomes were eluted with 25 mM Tris-HCl pH 7.5 containing 2 M NaCl, and 0.5 ml fractions were collected. Homogeneity of the eluted material was confirmed by analysis of an aliquot by SDS 12% PAGE and Coomassie blue staining of the gel. Fractions containing proteasomes were combined and dialysed against 25 mM Tris-HCl pH 7.5. Protein concentration was determined using the BCA method (Pierce Chemical, Rockford, Ill.).
Equal amounts of proteins, or equal amounts of purified proteasomes, were loaded on a 12% SDS-PAGE and electro-blotted onto Protran nitrocellulose membranes (Schleicher & Schuell, Keene, Hampshire, USA). Blots were probed with Abs specific for α2, LMP2 LMP7, MECL1, and PA28α subunits (Affinity), and developed by enhanced chemi-luminescence (ECL, Amersham Pharmacia Biotech, Uppsala, SW).

B1: oxidised Tat: oxidised form of the HIV-1 Tat protein, used as control (protein, UniProt P04608 1-86, looked up)
Protein Tat: MEPVDPRLEPWKHPGSQPKTACTNCYCKKCCFHCQVCFITKALGISYGRKKRRQRRRAHQNSQTHQASLSKQPTSQPRGDPTGPKE
modifications: oxidised
notes: oxidised form of the HIV-1 Tat protein, used as control
LMP2 expression in splenocytes (LMP2): no effect

B2: Tat22: mutated HIV-1 Tat carrying glycine instead of cysteine 22 (SEQ ID NO 286) (protein)
chain: B1 Protein Tat with C22G, A58P, H59P, N61G, A67V, P77S
reactivation of latent infection (HIV-1 LTR): do not induce | transactivation of the HIV-1 LTR (HIV-1 LTR): no effect | reactivation of latent infection (HIV-1 LTR; listed as Tatcys22): does not induce | subunit composition of proteasomes [1]: modifies the subunit composition of proteasomes
